Test results: PMC7913765, “Dynamics of the HD regulatory subdomain of PARP-1; substrate access and allostery in PARP activation and inhibition”

Assays:
Conditions in all cases: protein: recombinant; tags: N-terminal 6His-6Lys tag, TEV site; label: biotin (internal dT, streptavidin chip); dumbbell of two hairpins with T7 loops, nick between the 5' and 3' ends; stems 13 and 12 bp
PARP-1 full-length [1] = target: T1, PARP-1 full-length (human, UniProt P09874 2-1014); test: SPR; olaparib (10 mM [sic]); SPR (Biacore 8K): 20 mM HEPES, 150 mM NaCl, 1 mM TCEP, 0.05% Tween-20, 1% (v/v) (component not given), pH not stated, 25 C; PARP-1 0.078-20 nM; n = 6
PARP-1 full-length [2] = target: T1, PARP-1 full-length; test: SPR; no inhibitor; SPR (Biacore 8K): 20 mM HEPES, 150 mM NaCl, 1 mM TCEP, 0.05% Tween-20, 1% (v/v) (component not given), pH not stated, 25 C; PARP-1 0.078-20 nM; n = 6
PARP-1 full-length [3] = target: T1, PARP-1 full-length; test: SPR; EB-47 (100 mM [sic]); SPR (Biacore 8K): 20 mM HEPES, 150 mM NaCl, 1 mM TCEP, 0.05% Tween-20, 1% (v/v) (component not given), pH not stated, 25 C; PARP-1 0.078-20 nM; n = 6
PARP-1 full-length [4] = target: T1, PARP-1 full-length; test: SPR; veliparib (10 mM [sic]); SPR (Biacore 8K): 20 mM HEPES, 150 mM NaCl, 1 mM TCEP, 0.05% Tween-20, 1% (v/v) (component not given), pH not stated, 25 C; PARP-1 0.078-20 nM; n = 6

T1 sequence (P09874 2-1014): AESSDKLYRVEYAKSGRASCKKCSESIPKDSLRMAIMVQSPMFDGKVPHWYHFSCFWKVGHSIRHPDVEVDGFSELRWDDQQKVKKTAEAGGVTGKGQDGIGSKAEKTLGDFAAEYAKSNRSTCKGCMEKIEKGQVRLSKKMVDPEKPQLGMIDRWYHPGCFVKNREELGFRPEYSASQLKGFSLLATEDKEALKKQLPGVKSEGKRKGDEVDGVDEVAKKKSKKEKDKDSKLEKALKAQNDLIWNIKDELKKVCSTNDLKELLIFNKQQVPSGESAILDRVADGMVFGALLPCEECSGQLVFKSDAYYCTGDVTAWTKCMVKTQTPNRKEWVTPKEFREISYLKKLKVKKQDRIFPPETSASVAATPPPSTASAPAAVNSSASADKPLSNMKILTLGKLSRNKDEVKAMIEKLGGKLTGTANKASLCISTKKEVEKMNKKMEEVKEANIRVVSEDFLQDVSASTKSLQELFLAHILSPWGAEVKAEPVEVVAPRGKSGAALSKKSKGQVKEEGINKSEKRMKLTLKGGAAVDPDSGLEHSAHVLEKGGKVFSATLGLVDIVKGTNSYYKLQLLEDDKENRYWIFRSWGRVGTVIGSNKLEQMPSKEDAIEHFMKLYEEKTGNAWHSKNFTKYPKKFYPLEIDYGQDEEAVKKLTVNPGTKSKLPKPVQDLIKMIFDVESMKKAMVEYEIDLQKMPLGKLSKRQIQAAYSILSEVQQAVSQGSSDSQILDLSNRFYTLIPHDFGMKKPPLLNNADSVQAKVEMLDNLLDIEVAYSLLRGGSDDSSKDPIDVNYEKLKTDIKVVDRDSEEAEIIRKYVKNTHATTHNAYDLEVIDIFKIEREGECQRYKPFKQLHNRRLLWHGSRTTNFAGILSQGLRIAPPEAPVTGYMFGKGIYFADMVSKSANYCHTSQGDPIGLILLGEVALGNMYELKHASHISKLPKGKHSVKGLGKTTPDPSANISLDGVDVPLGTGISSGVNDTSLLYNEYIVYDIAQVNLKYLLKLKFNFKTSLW

B1: biotinylated hairpin DNA (dumbbell single-strand break model) (structured_DNA)
DNA: GACAACCCGGCGCTTTTTTTGCGCCGGGTTGTCTGGCCCAGTTCGTTTTTTTCGAACTGGGCCA
modifications: biotin-dT at position 17 (written as T; between S1 and S2)
PARP-1 full-length [1]
  Kd: 2.1 nM
PARP-1 full-length [2]
  Kd: 2.1 nM
PARP-1 full-length [3]
  Kd: 0.13 nM
PARP-1 full-length [4]
  Kd: 4.2 nM
